Tested on: Zn(II)-bound Fur homodimer (Escherichia coli (expressed in MC4100))
Experiment: HinfI restriction site protection
Conditions: 0.5 uM (as monomer) sufficient to protect, not a Kd, 2 mM Mg2+, 3.2 nM pUC19-iuc, 20 mM Tris pH 8.0, 150 mM NaCl, 2 mM MgCl2, 0.1 mg/ml BSA, 10 min at room temperature, then HinfI (1 unit) 37 C 10 min

pUC19-iuc (Fur-box of iucABCD promoter)
binding: 0.5 µM

Source: article PMC12538065
